Assay results as given in PMC4572934.

Target: GST-tagged FXR ligand binding domain (FXR-LBD)
Experiment: AlphaScreen or HTRF; FXR coactivator recruitment assay with increasing amounts of mometasone furoate (MF); GST-FXR-LBD on anti-GST acceptor beads, biotinylated SRC-1 peptide on streptavidin donor beads; 1 hour incubation with ligand, then 4 hours with beads

biotinylated SRC-1 peptide (co-activator)
efficacy of SRC-1 recruitment with MF compared to CDCA: 12%
